Measured values reported in article PMC5996148, “Data set on G4 DNA interactions with human proteins”.

Tests used:
[1] = molecular target: T1, Peptidyl-tRNA hydrolase 2, mitochondrial (human, UniProt Q9Y3E5 1-179); experiment: protein microarray; 2.5 uM ON; 4.85 at 25 uM; Microarray: 20 mM Tris pH 7.5, 5 mM MgCl2, 100 mM KCl, 0.1% Tween-20, A/T-rich ON blocker mix; EMSA: 20 mM Tris-HCl pH 8, 100 mM KCl, 200 nM ON, 0-200 nM BRD3; details: protein: commercial; label: biotin; intramolecular parallel G4
T1 sequence: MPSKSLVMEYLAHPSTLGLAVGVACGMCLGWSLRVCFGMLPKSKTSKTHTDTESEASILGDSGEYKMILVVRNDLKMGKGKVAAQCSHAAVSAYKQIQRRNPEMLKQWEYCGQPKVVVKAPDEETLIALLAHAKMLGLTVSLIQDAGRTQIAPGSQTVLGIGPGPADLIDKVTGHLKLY

[2] = molecular target: T2, hypothetical protein HSPC111 (human, UniProt Q9Y3C1 1-178); experiment: as above; details: protein: commercial; label: biotin; intramolecular parallel G4
T2 sequence: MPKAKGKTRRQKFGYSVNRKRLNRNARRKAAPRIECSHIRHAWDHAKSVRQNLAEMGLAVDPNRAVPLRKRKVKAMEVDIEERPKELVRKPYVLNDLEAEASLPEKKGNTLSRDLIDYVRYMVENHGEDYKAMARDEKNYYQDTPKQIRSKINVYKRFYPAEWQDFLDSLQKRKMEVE

bromodomain containing 3 [3] = molecular target: T3, bromodomain containing 3 (human, UniProt Q15059-2 1-556); experiment: as above; details: protein: commercial; label: biotin; intramolecular parallel G4
T3 sequence (Q15059 other isoform, or with tags, fused parts or gaps): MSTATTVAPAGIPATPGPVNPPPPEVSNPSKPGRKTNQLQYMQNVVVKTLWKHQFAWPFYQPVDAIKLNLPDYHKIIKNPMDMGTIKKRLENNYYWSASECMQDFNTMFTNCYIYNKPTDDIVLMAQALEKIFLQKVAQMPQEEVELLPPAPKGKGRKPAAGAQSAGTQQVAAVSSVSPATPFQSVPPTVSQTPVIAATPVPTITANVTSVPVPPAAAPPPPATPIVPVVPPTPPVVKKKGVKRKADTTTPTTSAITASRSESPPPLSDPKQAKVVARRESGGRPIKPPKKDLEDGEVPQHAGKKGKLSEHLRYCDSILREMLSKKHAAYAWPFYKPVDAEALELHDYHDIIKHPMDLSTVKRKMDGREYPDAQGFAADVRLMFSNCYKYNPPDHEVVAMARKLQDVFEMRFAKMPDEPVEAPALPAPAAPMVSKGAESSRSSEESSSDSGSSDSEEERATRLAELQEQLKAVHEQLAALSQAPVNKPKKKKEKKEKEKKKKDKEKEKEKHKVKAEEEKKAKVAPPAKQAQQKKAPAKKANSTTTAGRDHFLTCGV

[4] = molecular target: peptidyl arginine deiminase, type IV (human, UniProt Q9UM07 1-663); experiment: as above; details: protein: commercial; label: biotin; intramolecular parallel G4
peptidyl arginine deiminase, type IV, sequence (Q9UM07 whole entry, the tested form may be a part): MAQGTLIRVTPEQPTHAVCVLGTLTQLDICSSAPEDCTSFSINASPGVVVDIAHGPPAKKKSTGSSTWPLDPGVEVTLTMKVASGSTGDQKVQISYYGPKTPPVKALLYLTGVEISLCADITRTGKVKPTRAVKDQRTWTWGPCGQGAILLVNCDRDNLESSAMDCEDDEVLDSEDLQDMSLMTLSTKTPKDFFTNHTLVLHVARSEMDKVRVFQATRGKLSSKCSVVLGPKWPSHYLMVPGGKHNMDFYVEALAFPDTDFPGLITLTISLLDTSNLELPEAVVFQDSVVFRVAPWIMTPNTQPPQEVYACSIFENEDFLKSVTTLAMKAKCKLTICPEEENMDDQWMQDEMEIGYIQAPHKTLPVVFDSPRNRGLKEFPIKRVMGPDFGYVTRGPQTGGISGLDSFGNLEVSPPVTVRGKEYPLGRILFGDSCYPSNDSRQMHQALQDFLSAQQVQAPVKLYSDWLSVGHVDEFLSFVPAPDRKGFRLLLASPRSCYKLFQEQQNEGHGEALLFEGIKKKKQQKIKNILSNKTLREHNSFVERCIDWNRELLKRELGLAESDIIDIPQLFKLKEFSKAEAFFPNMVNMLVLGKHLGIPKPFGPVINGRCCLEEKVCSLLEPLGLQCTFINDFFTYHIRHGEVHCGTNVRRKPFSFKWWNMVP

[5] = molecular target: Coiled-coil domain-containing protein 28A (human, UniProt Q8IWP9 1-274); experiment: as above; details: protein: commercial; label: biotin; intramolecular parallel G4
Coiled-coil domain-containing protein 28A, sequence (Q8IWP9 whole entry, the tested form may be a part): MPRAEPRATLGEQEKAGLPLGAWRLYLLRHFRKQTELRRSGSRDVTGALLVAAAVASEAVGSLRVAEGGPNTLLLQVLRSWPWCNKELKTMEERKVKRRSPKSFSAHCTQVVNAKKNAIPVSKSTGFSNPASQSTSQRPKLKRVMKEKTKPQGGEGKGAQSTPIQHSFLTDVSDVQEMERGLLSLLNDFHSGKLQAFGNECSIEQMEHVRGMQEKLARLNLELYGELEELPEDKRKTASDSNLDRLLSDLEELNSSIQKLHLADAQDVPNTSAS

[6] = molecular target: T4, additional sex combs like 1 (human, UniProt Q6P1M8 1-84); experiment: protein microarray; 2.5 uM ON; 4.86 at 25 uM; Microarray: 20 mM Tris pH 7.5, 5 mM MgCl2, 100 mM KCl, 0.1% Tween-20, A/T-rich ON blocker mix; EMSA: 20 mM Tris-HCl pH 8, 100 mM KCl, 200 nM ON, 0-200 nM BRD3; details: protein: commercial; label: biotin; intramolecular parallel G4
T4 sequence: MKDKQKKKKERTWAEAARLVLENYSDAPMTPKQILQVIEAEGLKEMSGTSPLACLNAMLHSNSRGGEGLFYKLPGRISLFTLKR

[7] = molecular target: T5, GABA(A) receptor-associated protein (human, UniProt O95166 1-117); experiment: as above; details: protein: commercial; label: biotin; intramolecular parallel G4
T5 sequence (O95166 whole entry): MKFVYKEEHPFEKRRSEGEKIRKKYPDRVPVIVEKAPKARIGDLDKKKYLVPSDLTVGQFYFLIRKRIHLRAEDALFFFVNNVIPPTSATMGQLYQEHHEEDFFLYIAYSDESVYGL

[8] = molecular target: T6, LOC153684 protein (FLJ42001 fis, clone SPLEN2029912) (human, UniProt Q6ZVW3 1-145); experiment: as above; details: protein: commercial; label: biotin; intramolecular parallel G4
T6 sequence: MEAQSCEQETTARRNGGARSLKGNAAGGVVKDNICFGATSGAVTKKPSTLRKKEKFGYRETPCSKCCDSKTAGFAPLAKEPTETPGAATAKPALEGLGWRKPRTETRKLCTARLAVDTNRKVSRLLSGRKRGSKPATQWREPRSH

[9] = molecular target: Cyclin-dependent kinase-like 3 (human, UniProt Q8IVW4-2 1-455); experiment: as above; details: protein: commercial; label: biotin; intramolecular parallel G4
Cyclin-dependent kinase-like 3, sequence (Q8IVW4 1-455): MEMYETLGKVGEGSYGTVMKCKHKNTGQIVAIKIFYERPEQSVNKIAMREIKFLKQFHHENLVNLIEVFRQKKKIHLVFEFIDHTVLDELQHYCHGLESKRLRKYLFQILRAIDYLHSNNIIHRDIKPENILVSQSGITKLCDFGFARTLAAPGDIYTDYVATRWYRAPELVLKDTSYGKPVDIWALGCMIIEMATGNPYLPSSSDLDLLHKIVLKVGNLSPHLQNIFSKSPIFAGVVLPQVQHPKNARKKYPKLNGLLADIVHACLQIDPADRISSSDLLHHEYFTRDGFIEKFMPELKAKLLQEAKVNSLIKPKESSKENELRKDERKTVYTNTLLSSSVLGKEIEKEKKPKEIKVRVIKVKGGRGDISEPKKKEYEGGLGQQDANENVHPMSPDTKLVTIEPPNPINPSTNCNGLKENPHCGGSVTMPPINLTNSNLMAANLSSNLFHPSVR

[10] = molecular target: T7, survival motor neuron domain containing 1 (human, UniProt O75940 1-238); experiment: as above; details: protein: commercial; label: biotin; intramolecular parallel G4
T7 sequence: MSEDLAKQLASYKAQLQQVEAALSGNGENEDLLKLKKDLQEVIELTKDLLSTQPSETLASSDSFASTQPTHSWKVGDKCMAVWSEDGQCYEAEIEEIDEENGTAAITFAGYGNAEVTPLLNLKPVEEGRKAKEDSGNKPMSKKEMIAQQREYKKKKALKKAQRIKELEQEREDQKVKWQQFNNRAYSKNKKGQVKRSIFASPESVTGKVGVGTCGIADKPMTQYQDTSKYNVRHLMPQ

[11] = molecular target: peripheral myelin protein 2 (human, UniProt P02689 1-132); experiment: as above; details: protein: commercial; label: biotin; intramolecular parallel G4
peripheral myelin protein 2, sequence (P02689 whole entry): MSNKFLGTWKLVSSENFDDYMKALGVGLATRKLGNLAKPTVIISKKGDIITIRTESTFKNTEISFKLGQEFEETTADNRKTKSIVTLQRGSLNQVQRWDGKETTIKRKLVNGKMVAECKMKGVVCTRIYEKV

[12] = molecular target: T8, chromosome 1 open reading frame 63 (human, UniProt Q9BUV0 1-290); experiment: as above; details: protein: commercial; label: biotin; intramolecular parallel G4
T8 sequence: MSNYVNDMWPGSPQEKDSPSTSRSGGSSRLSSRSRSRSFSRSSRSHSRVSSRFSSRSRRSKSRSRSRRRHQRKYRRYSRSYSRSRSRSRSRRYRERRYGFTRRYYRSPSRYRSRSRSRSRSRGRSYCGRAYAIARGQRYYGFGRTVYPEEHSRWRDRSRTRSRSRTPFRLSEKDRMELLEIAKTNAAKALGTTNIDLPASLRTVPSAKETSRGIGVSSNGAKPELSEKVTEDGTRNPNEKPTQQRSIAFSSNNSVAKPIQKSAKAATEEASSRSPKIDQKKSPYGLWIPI

[13] = molecular target: actin related protein 2/3 complex, subunit 1B, 41 kDa (human, UniProt O15143 1-372); experiment: as above; details: protein: commercial; label: biotin; intramolecular parallel G4
[14] = molecular target: T9, ankyrin repeat and zinc finger domain containing 1 (human, UniProt Q9H8Y5 1-726); experiment: as above; details: protein: commercial; label: biotin; intramolecular parallel G4
T9 sequence: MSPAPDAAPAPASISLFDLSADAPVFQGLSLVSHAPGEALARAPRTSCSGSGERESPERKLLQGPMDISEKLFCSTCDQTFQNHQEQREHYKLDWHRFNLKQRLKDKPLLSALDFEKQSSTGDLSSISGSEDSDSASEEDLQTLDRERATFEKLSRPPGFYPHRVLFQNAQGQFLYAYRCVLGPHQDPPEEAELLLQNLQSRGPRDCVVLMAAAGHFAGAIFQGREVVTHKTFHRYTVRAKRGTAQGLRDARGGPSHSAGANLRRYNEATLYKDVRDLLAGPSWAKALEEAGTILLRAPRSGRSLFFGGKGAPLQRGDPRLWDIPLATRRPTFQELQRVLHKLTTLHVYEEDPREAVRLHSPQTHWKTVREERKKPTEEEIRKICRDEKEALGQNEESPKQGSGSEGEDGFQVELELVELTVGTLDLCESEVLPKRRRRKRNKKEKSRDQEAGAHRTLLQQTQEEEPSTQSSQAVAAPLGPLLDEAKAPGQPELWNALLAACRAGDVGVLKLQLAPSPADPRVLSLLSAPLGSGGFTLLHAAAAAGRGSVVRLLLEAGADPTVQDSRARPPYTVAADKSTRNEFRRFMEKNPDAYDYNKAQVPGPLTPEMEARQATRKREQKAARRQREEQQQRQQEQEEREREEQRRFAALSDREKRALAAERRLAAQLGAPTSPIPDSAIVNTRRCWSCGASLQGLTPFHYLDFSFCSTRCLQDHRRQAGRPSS

[15] = molecular target: T4, additional sex combs like 1; experiment: protein microarray; 2.5 uM ON; 6.47 at 25 uM; Microarray: 20 mM Tris pH 7.5, 5 mM MgCl2, 100 mM KCl, 0.1% Tween-20, A/T-rich ON blocker mix; EMSA: 20 mM Tris-HCl pH 8, 100 mM KCl, 200 nM ON, 0-200 nM BRD3; details: protein: commercial; label: biotin; G4; mixed topology for unmodified strand, CD differs when biotinylated
[16] = molecular target: T5, GABA(A) receptor-associated protein; experiment: as above; details: protein: commercial; label: biotin; G4; mixed topology for unmodified strand, CD differs when biotinylated
[17] = molecular target: T8, chromosome 1 open reading frame 63; experiment: as above; details: protein: commercial; label: biotin; G4; mixed topology for unmodified strand, CD differs when biotinylated
bromodomain containing 3 [18] = molecular target: T3, bromodomain containing 3; experiment: as above; details: protein: commercial; label: biotin; G4; mixed topology for unmodified strand, CD differs when biotinylated

Binder GGTGACAGGGGTATGGGGAGGGG (structured_DNA, 3'-biotin) [G4-2 biotinylated (Ct1)] has a binding signal [1] of 3.46 Z-score, a binding signal [2] of 6.78 Z-score and a binding signal (bromodomain containing 3 [3]) of 6.79 Z-score. For the same binder, the binding signal [4] was 6.78 Z-score, the binding signal [5] was 6.78 Z-score and the binding signal [6] was 6.79 Z-score. It also gave a binding signal [7] of 6.62 Z-score, a binding signal [8] of 6.45 Z-score and a binding signal [9] of 6.29 Z-score. The binding signal [10] was 6.4 Z-score, the binding signal [11] was 6.73 Z-score and the binding signal [12] was 6.17 Z-score. It also gave a binding signal [13] of 6.19 Z-score and a binding signal [14] of 6.68 Z-score.

GGGGACAGGGGTATGGGGAGGGG (structured_DNA, 3'-biotin) [G4-3 biotinylated (CtG)] was tested, and the binding signal [15] was 9.22 Z-score, the binding signal [16] was 7.02 Z-score and the binding signal [17] was 5.93 Z-score. For the same binder, the binding signal (bromodomain containing 3 [18]) was 4.51 Z-score.
